First the molecules themselves.
T1: human Pals1 PDZ domain (Pals1^PDZ; residues 251–335) (Homo sapiens, UniProt Q8N3R9)
T1 construct: the PDZ domain of human Pals1 (Pals1^PDZ; residues 251–335); GST (N, cleaved yes); made in house; host or cells: Escherichia coli FB810
T1 sequence (Q8N3R9 251-335): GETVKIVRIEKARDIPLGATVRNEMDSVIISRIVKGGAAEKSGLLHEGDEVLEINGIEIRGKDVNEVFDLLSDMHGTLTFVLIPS

T2: human Pals1 PDZ domain (Pals1^PDZ; residues 251-335), wild type (human, UniProt Q8N3R9 251-335)
T2 chain: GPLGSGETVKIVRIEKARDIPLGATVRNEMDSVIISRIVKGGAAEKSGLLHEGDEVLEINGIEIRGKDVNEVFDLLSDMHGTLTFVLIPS

T3: human Pals1 PDZ domain (Pals1^PDZ; residues 251-335), wild type (human, UniProt Q8N3R9 251-335)
T3 construct: vector-derived residues Gly-Pro-Leu-Gly-Ser at the amino-terminus of Pals1^PDZ, left after removal of GST; Pals1 (MPP5), human, PDZ domain, residues 251-335; also called MPP5; protein associated with Lin-7; source: E. coli FB810, purified (glutathione Sepharose 4B, GST removed with GST-3C protease, Superdex S75)
T3 sequence: T2 chain

T4: human Pals1 PDZ domain F318A mutant (human, UniProt Q8N3R9 251-335, F318A)
T4 sequence: T2 chain with F73A

T5: human Pals1 PDZ domain F318C mutant (human, UniProt Q8N3R9 251-335, F318C)
T5 construct: Pals1 (MPP5), human, PDZ domain, residues 251-335, F318C; The methods name only the wild type and F318A; also called Pals1^PDZ F318C
T5 sequence (looked up): T1 sequence (Q8N3R9 251-335) with F68C

B1: fluorescein-labelled human Crb1 peptide, residues 1390-1406 (Crb^17) (peptide)
peptide: RVEMWNLMPPPAMERLI
modifications: also: fluorescein label, position not given here
notes: also called fluorescein-labelled Crb^17; Crumbs peptide (homologue 1)
B2: human Pals1 PDZ domain F318A mutant (domain or fragment)
chain: T2 chain with F73A
notes: vector-derived residues Gly-Pro-Leu-Gly-Ser at the amino-terminus of Pals1^PDZ, left after removal of GST (told for the wild type, same preparation); Pals1 (MPP5), human, PDZ domain, residues 251-335, F318A; also called Pals1^PDZ F318A; source: E. coli FB810, purified (glutathione Sepharose 4B, GST removed with GST-3C protease, Superdex S75)
B3: human Pals1 PDZ domain (Pals1^PDZ; residues 251-335), wild type (domain or fragment)
chain: T2 chain

Experiment [1] has as its target T1, human Pals1 PDZ domain (Pals1^PDZ; residues 251–335). Description: Fluorescence polarization binding assay, fluorescein-labelled Crb peptides with Pals1^PDZ. The note with it: Fp, fluorescein-labelled peptide 50 nM, protein 0 to 300 µM, 20 mM HEPES pH 7.5, 100 mM NaCl, 1 mM DTT, read after 5 min; measured in parallel from the same Pals1 preparation; representative of three independent experiments. Here is the method: Fluorescence polarization (Fp) assays were performed to determine the K d for each peptide following a previously described protocol (Guettler et al., 2008[▶]). Binding assays were performed in 20 mM HEPES pH 7.5, 100 mM NaCl, 1 mM DTT. The reaction mixtures contained a fixed concentration of fluorescein-labelled peptide (50 nM) and a protein concentration ranging from 0 to 300 µM depending on the dissociation constant. The 20 µl reactions were carried out in a 384-well plate and measured after 5 min using a Tecan Safire2 plate reader with excitation at 470 nm and emission at 525 nm. The anisotropy values were normalized and the K d values were determined using nonlinear regression with the graphics program Prism (Heyduk & Lee, 1990[▶]).
To characterize the interaction between the PDZ domain of human Pals1 (Pals1^PDZ; residues 251–335) and the intracellular segment of human Crb1 in vitro, we used fluorescence polarization (Fp) assays with a fluorescein-labelled peptide containing 17 carboxy-terminal residues 1390–1406 (defined hereafter as Crb^17). […] The Pals1^PDZ–Crb^17 interaction was stable to size-exclusion chromatography as detected from the Crb^17 intrinsic tryptophan fluorescence (data not shown). […]

Experiment [2] addresses T2, human Pals1 PDZ domain (Pals1^PDZ; …). Description: FP.
Experiment [3] addresses T3, human Pals1 PDZ domain (Pals1^PDZ; …). Description: fluorescence polarisation; fixed fluorescein-labelled peptide (50 nM), Pals1 PDZ protein titrated 0 to 300 µM; 20 mM HEPES pH 7.5, 100 mM NaCl, 1 mM DTT; 20 µl in 384-well plate, read after 5 min. The note with it: both partners purified.
In experiment [4] the target is T4, human Pals1 PDZ domain F318A mutant. As to the kind of experiment: FP.
Experiment [5] concerns the target T5, human Pals1 PDZ domain F318C mutant. Description: fluorescence polarisation; fixed fluorescein-labelled peptide (50 nM), Pals1 PDZ protein titrated 0 to 300 µM; 20 mM HEPES pH 7.5, 100 mM NaCl, 1 mM DTT; 20 µl in 384-well plate, read after 5 min. The note with it: both partners purified. For orientation: In fluorescence polarisation assays a small probe gives low polarisation when free and higher when bound to something large.

The target of experiment [6] is B1. The description is as above. The note with it: both partners purified.
The target in experiment [7] is Individual Crb^17 substitutions E1403A, R1404A and L1405A. Described as above.

Positions count from the first letter of the chain named. Names may count otherwise. “And” between values parts separate entries of the source, which are not always exact repeats. Equal values may be shown once. “Also recorded” adds a separate entry of the source. Ends that are not written are not given here.

Experimental findings from PMC4356366, “Structures of the human Pals1 PDZ domain with and without ligand suggest gated access of Crb to the PDZ peptide-binding groove” (Acta Crystallographica Section D: Biological Crystallography, 2015) are described below.

The Kd is the equilibrium constant for the complex coming apart.

For the molecule “Crb^17 I1406A: Crb^17 peptide with carboxy-terminal Ile1406 replaced by alanine, fluorescein-labelled (RVEMWNLMPPPAMERLA; also: fluorescein label, position not given here)”, the “dissociation constant (Kd) for Pals1^PDZ” value in experiment [1] is given as “completely abolished detectable binding; also recorded: Not detectable”.

In experiment [2], RVEMWNLMPPPAAERLI (also: fluorescein label, position not given here) [fluorescein-labelled Crb^17 M1402A] showed a dissociation constant (Kd) of 8.1 µM. For the same molecule, the binding result in experiment [3] is listed as “binds”.

As for B1, the Kd was 1800 nM in experiment [4]; 9.2 µM and 12.4 µM in experiment [3]; 5 µM in experiment [5].

Turning to B2, the “fold tighter binding than wild-type Pals1^PDZ” value in experiment [6] was determined as 5 fold.

For the molecule RVEMWNLMPPPAMEALI (also: fluorescein label, position not given here) [fluorescein-labelled Crb^17 R1404A], the Kd in experiment [2] was 51.5 µM. Moreover, the binding result in experiment [3] was “binds”.

In turn, RVEMWNLMPPPAMARLI (also: fluorescein label, position not given here) [fluorescein-labelled Crb^17 E1403A] returned a Kd in experiment [2] of 53.1 µM. In experiment [3], the binding result was “binds”.

The molecule RVEMWNLMPPPAMERAI (also: fluorescein label, position not given here) [fluorescein-labelled Crb^17 L1405A] gave a dissociation constant Kd in experiment [2] of 55.3 µM. The binding result in experiment [3] is given as “binds”.

As to B3, in experiment [7], the dissociation constant Kd was 52 to 55 µM.

In the case of AMERLI (also: fluorescein label, position not given here) [fluorescein-labelled shorter Crb1 peptide spanning residues 1401-1406 (Crb^6)], in experiment [2], binding was put at a Kd of 16.8 µM. The binding result in experiment [3] is given as “binds”.
